In patent publication WO2010064089A1 (dated 2010):
Substitutions are numbered along the chain they refer to.

B1: [224G11][Hz1] (antibody, V domains shown)
VH: QVQLVQSGAEVKKPGASVKVSCKASGYIFTAYTMHWVRQAPGQGLEWMGWIKPNNGLANYAQKFQGRVTMTRDTSISTAYMELSRLRSDDTAVYYCARSEITTEFDYWGQGTLVTVSS
VL: DIVLTQSPDSLAVSLGERATINCKSSESVDSYANSFMHWYQQKPGQPPKLLIYRASTRESGVPDRFSGSGSRTDFTLTISSLQAEDVAVYYCQQSKEDPLTFGGGTKVEIKR
B2: [224G11][TH7 Hz1] (antibody, V domains shown)
VH: B1 VH
VL: B1 VL
B3: [224G11][Hz3] (antibody, V domains shown)
VH: B1 VH
VL: B1 VL with L4M, M37L, R72G
B4: [224G11][Hz2] (antibody, V domains shown)
VH: B1 VH
VL: B1 VL with L4M, R72G
B5: [224G11][TH7 Hz3] (antibody, V domains shown)
VH: B1 VH
VL: B1 VL with L4M, M37L, R72G
B6: murine 224G11 Mab (antibody, mouse IgG1, V domains shown)
VH: EVQLQQSGPELVKPGASVKISCKTSGYIFTAYTMHWVRQSLGESLDWIGGIKPNNGLANYNQKFKGKATLTVDKSSSTAYMDLRSLTSEDSAVYYCARSEITTEFDYWGQGTALTVSS
VL: DIVLTQSPASLAVSLGQRATISCRASESVDSYANSFMHWYQQKPGQPPKLLIYRASNLESGIPARFSGSGSRTDFTLTINPVEADDVATYYCQQSKEDPLTFGSGTKLEMKR
B7: [224G11]chim (antibody, human IgG1, V domains shown)
VH: B6 VH
VL: B6 VL
B8: [224G11][MH chim] (antibody, human IgG1, V domains shown)
VH: B6 VH
VL: B6 VL
B9: [224G11][MUP9H chim] (antibody, human IgG1, V domains shown)
VH: B6 VH
VL: B6 VL
B10: [224G11][MMCH chim] (antibody, human IgG1, V domains shown)
VH: B6 VH
VL: B6 VL
B11: [224G11][TH7 chim] (antibody)
heavy: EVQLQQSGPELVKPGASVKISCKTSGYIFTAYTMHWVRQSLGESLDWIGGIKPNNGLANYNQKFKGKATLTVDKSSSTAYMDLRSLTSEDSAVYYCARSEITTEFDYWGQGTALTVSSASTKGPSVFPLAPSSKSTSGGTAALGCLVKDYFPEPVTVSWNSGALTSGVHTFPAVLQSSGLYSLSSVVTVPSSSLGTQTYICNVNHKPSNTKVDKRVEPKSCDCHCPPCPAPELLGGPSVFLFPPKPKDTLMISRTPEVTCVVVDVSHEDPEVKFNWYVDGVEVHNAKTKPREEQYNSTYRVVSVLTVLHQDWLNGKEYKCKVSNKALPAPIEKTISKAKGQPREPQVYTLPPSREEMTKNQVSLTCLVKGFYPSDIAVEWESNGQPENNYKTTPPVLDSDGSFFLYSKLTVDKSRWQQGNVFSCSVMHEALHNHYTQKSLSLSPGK
light: DIVLTQSPASLAVSLGQRATISCRASESVDSYANSFMHWYQQKPGQPPKLLIYRASNLESGIPARFSGSGSRTDFTLTINPVEADDVATYYCQQSKEDPLTFGSGTKLEMKRTVAAPSVFIFPPSDEQLKSGTASVVCLLNNFYPREAKVQWKVDNALQSGNSQESVTEQDSKDSTYSLSSTLTLSKADYEKHKVYACEVTHQGLSSPVTKSFNRGEC

Target: human c-Met receptor on tumor cells (A549, NCI-H441, BxPC3) (human, UniProt P08581 25-1390)
Test: cell-based or functional assay

| Binder | inhibition of HGF-induced proliferation of NCI-H441 cells (Figure 14A) [%] | inhibition of HGF-induced proliferation of NCI-H441 cells (Figure 15) [%] | inhibition of HGF-induced proliferation of NCI-H441 cells (Figure 14B) [%] |
| --- | --- | --- | --- |
| B1 | ~46 |  |  |
| B2 |  | 67 |  |
| B3 | ~35 |  |  |
| B4 | ~30 |  |  |
| B5 |  | 76 |  |
| B6 | 66 | 74 | 57 |
| B7 | 19 | 33 |  |
| B8 |  |  | 79 |
| B9 |  |  | 78 |
| B10 |  |  | 84 |
| B11 |  | 81 | 93 |
